In the supplement of paper PMC11780869:

System: Bacillus subtilis
Assay: cleaved RNA product abundance (RNA/gDNA barcode ratio) relative to median wild-type variant (ratio to wild type); higher = more accumulation of the downstream cleavage product
Conditions: experiment (reporter, strain, medium): exp 8a: truncated aprE reporter, strain BJT201 with 2% xylose (RNase J1 expressed); cleavage site: glnRA (positions -5 to +31 mutated)
In short: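 Reporter mRNAs (truncated aprE or tetM) carrying barcoded, mutagenized RNase Y cleavage-site windows were made from oligos with a 9% error rate and integrated into the B. subtilis chromosome. Cultures grew in LB at 37°C from OD600 0.0003 to 0.3. Cleaved RNA was gel-selected, reverse transcribed and barcode-sequenced alongside genomic DNA barcodes, with UMI collapsing. Cleaved product abundance is the RNA:gDNA barcode ratio per variant, scaled to the median wild-type variant.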

Sequence | cleaved RNA product abundance
CGACATGTCCCGCTTCTTTCATTAATCCGTTAGCAACTGTATTGCTATATTCATTTACCTTTTAAGAGGAGGAAT | 0.16
CGACATGTCCCGCTTCTTTCATTAATCCGTTAGCAACTGTATTGCTATTTACATTTACCTTTTAAGAGGAGGAAT | 0.202
CGACATGTCCCGCTTCTTTCATTAATCCGTTAGCAACTGTATTGGTATATACATTTACCTTTTAAGAGGAGGAAT | 0.175
CGACATGTCCCGCTTCTTTCATTAATCCGTTAGCAACTGTATTTCTATATACATTTACCTTTTAAGAGGAGGAAT | 0.506
CGACATGTCCCGCTTCTTTCATTAATCCGTTAGCAACTGTCTTACTATATACATTTACCTTTTAAGAGGAGGAAT | 0.324
CGACATGTCCCGCTTCTTTCATTAATCCGTTAGCAACTGTCTTGATATATACATTTACCTTTTAAGAGGAGGAAT | 0.547
CGACATGTCCCGCTTCTTTCATTAATCCGTTAGCAACTGTCTTGCTATATACATTTACCTTTTAAGAGGAGGAAT | 0.849
CGACATGTCCCGCTTCTTTCATTAATCCGTTAGCAACTGTCTTGCTATCTACATTTACCTTTTAAGAGGAGGAAT | 0.0931
CGACATGTCCCGCTTCTTTCATTAATCCGTTAGCAACTGTGTAGCTATATACATTTACCTTTTAAGAGGAGGAAT | 0.23
CGACATGTCCCGCTTCTTTCATTAATCCGTTAGCAACTGTGTTACTATATACATTTACCTTTTAAGAGGAGGAAT | 0.274
CGACATGTCCCGCTTCTTTCATTAATCCGTTAGCAACTGTGTTGCTATATACATTTACATTTTAAGAGGAGGAAT | 0.517
CGACATGTCCCGCTTCTTTCATTAATCCGTTAGCAACTGTGTTGCTATATACATTTACCATTTAAGAGGAGGAAT | 0.38
CGACATGTCCCGCTTCTTTCATTAATCCGTTAGCAACTGTGTTGCTATATACATTTACCGTTTAAGAGGAGGAAT | 0.537
CGACATGTCCCGCTTCTTTCATTAATCCGTTAGCAACTGTGTTGCTATATACATTTACCTTTTAAGAGGAGGAAT | 0.358
CGACATGTCCCGCTTCTTTCATTAATCCGTTAGCAACTGTGTTGTTATATACATTTACCTTTTAAGAGGAGGAAT | 1.01
CGACATGTCCCGCTTCTTTCATTAATCCGTTAGCAACTGTGTTTCTATATACATTTAACTTTTAAGAGGAGGAAT | 0.453
CGACATGTCCCGCTTCTTTCATTAATCCGTTAGCAACTGTTAAGCTATATACATTTACCTTTTAAGAGGAGGAAT | 0.279
CGACATGTCCCGCTTCTTTCATTAATCCGTTAGCAACTGTTACGCTATATACATTTACCTTTTAAGAGGAGGAAT | 0.54
CGACATGTCCCGCTTCTTTCATTAATCCGTTAGCAACTGTTATCCTATATACATTTACCTTTTAAGAGGAGGAAT | 0.337
CGACATGTCCCGCTTCTTTCATTAATCCGTTAGCAACTGTTATGATATATACATTTACCTTTTAAGAGGAGGAAT | 0.387
CGACATGTCCCGCTTCTTTCATTAATCCGTTAGCAACTGTTATGCCATATACATTTACCTTTTAAGAGGAGGAAT | 0.232
CGACATGTCCCGCTTCTTTCATTAATCCGTTAGCAACTGTTATGCTAAATACATTTACCTTTTAAGAGGAGGAAT | 0.111

Sequence | cleaved RNA product abundance
CGACATGTCCCGCTTCTTTCATTAATCCGTTAGCAACTGTTATGCTATATACAATTACCTTTTAAGAGGAGGAAT | 1.02
CGACATGTCCCGCTTCTTTCATTAATCCGTTAGCAACTGTTATGCTATATACATTTACCTTTTAAGAGGAGGAAT | 0.695
CGACATGTCCCGCTTCTTTCATTAATCCGTTAGCAACTGTTATGCTATATACATTTACTTTTTAAGAGGAGGAAT | 1.33
CGACATGTCCCGCTTCTTTCATTAATCCGTTAGCAACTGTTATGCTATATACATTTAGCTTTTAAGAGGAGGAAT | 0.711
CGACATGTCCCGCTTCTTTCATTAATCCGTTAGCAACTGTTATGCTATATACCTTTACCTTTTAAGAGGAGGAAT | 0.184
CGACATGTCCCGCTTCTTTCATTAATCCGTTAGCAACTGTTATGCTATATACGTTTACCTTTTAAGAGGAGGAAT | 0.232
CGACATGTCCCGCTTCTTTCATTAATCCGTTAGCAACTGTTATGCTATATAGATTTACCTTTTAAGAGGAGGAAT | 1.29
CGACATGTCCCGCTTCTTTCATTAATCCGTTAGCAACTGTTATGGTATATACATTTACCTTTTAAGAGGAGGAAT | 0.161
CGACATGTCCCGCTTCTTTCATTAATCCGTTAGCAACTGTTATGTTATATACATTTACCTTTTAAGAGGAGGAAT | 0.172
CGACATGTCCCGCTTCTTTCATTAATCCGTTAGCAACTGTTATTCTATATACATTTACCTTTTAAGAGGAGGAAT | 0.506
CGACATGTCCCGCTTCTTTCATTAATCCGTTAGCAACTGTTCAGCTATATACATTTACCTTTTAAGAGGAGGAAT | 0.344
CGACATGTCCCGCTTCTTTCATTAATCCGTTAGCAACTGTTCTGCAATATACATTTACCTTTTAAGAGGAGGAAT | 0.103
CGACATGTCCCGCTTCTTTCATTAATCCGTTAGCAACTGTTCTGCTATATACATGTACCTTTTAAGAGGAGGAAT | 0.386
CGACATGTCCCGCTTCTTTCATTAATCCGTTAGCAACTGTTCTGCTATATACATTTACCTTTTAAGAGGAGGAAT | 0.446
CGACATGTCCCGCTTCTTTCATTAATCCGTTAGCAACTGTTCTGCTATATACATTTACTTTTTAAGAGGAGGAAT | 0.495
CGACATGTCCCGCTTCTTTCATTAATCCGTTAGCAACTGTTCTGCTATATATATTTACCTTTTAAGAGGAGGAAT | 0.554
CGACATGTCCCGCTTCTTTCATTAATCCGTTAGCAACTGTTGTACTATATACATTTACCTTTTAAGAGGAGGAAT | 0.713
CGACATGTCCCGCTTCTTTCATTAATCCGTTAGCAACTGTTGTCCTATATACATTTACCTTTTAAGAGGAGGAAT | 0.343
CGACATGTCCCGCTTCTTTCATTAATCCGTTAGCAACTGTTGTGCAATATACATTTACCTTTTAAGAGGAGGAAT | 0.249
CGACATGTCCCGCTTCTTTCATTAATCCGTTAGCAACTGTTGTGCTAAATACATTTACCTTTTAAGAGGAGGAAT | 0.266
CGACATGTCCCGCTTCTTTCATTAATCCGTTAGCAACTGTTGTGCTATAAACATTTACCTTTTAAGAGGAGGAAT | 0.453
CGACATGTCCCGCTTCTTTCATTAATCCGTTAGCAACTGTTGTGCTATATACATTTACCTTTTAAGAGGAGGAAT | 0.516

Sequence | cleaved RNA product abundance
CGACATGTCCCGCTTCTTTCATTAATCCGTTAGCAACTGTTGTGCTATATATATTTACCTTTTAAGAGGAGGAAT | 0.736
CGACATGTCCCGCTTCTTTCATTAATCCGTTAGCAACTGTTTAACTATATACATTTACCTTTTAAGAGGAGGAAT | 0.378
CGACATGTCCCGCTTCTTTCATTAATCCGTTAGCAACTGTTTAGATATATACATTTACCTTTTAAGAGGAGGAAT | 0.297
CGACATGTCCCGCTTCTTTCATTAATCCGTTAGCAACTGTTTAGCAATATACATTTACCTTTTAAGAGGAGGAAT | 0.455
CGACATGTCCCGCTTCTTTCATTAATCCGTTAGCAACTGTTTAGCCATATACATTTACCTTTTAAGAGGAGGAAT | 0.259
CGACATGTCCCGCTTCTTTCATTAATCCGTTAGCAACTGTTTAGCTAAATACATTTACCTTTTAAGAGGAGGAAT | 0.212
CGACATGTCCCGCTTCTTTCATTAATCCGTTAGCAACTGTTTAGCTATATAAATTTACCTTTTAAGAGGAGGAAT | 0.426
CGACATGTCCCGCTTCTTTCATTAATCCGTTAGCAACTGTTTAGCTATATACATATACCTTTTAAGAGGAGGAAT | 0.539
CGACATGTCCCGCTTCTTTCATTAATCCGTTAGCAACTGTTTAGCTATATACATTAACCTTTTAAGAGGAGGAAT | 0.618
CGACATGTCCCGCTTCTTTCATTAATCCGTTAGCAACTGTTTAGCTATATACATTTAACTTTTAAGAGGAGGAAT | 0.462
CGACATGTCCCGCTTCTTTCATTAATCCGTTAGCAACTGTTTAGCTATATACATTTACATTTTAAGAGGAGGAAT | 0.588
CGACATGTCCCGCTTCTTTCATTAATCCGTTAGCAACTGTTTAGCTATATACATTTACCTTTTAAGAGGAGGAAT | 0.537
CGACATGTCCCGCTTCTTTCATTAATCCGTTAGCAACTGTTTAGCTATATACATTTACTTTTTAAGAGGAGGAAT | 0.591
CGACATGTCCCGCTTCTTTCATTAATCCGTTAGCAACTGTTTAGCTATATACATTTAGCTTTTAAGAGGAGGAAT | 0.608
CGACATGTCCCGCTTCTTTCATTAATCCGTTAGCAACTGTTTAGCTATATACATTTATCTTTTAAGAGGAGGAAT | 0.572
CGACATGTCCCGCTTCTTTCATTAATCCGTTAGCAACTGTTTAGCTATATACATTTGCCTTTTAAGAGGAGGAAT | 0.326
CGACATGTCCCGCTTCTTTCATTAATCCGTTAGCAACTGTTTAGCTATATATATTTACCTTTTAAGAGGAGGAAT | 0.416
CGACATGTCCCGCTTCTTTCATTAATCCGTTAGCAACTGTTTAGCTTTATACATTTACCTTTTAAGAGGAGGAAT | 0.192
CGACATGTCCCGCTTCTTTCATTAATCCGTTAGCAACTGTTTAGGTATATACATTTACCTTTTAAGAGGAGGAAT | 0.227
CGACATGTCCCGCTTCTTTCATTAATCCGTTAGCAACTGTTTAGTTATATACATTTACCTTTTAAGAGGAGGAAT | 0.327
CGACATGTCCCGCTTCTTTCATTAATCCGTTAGCAACTGTTTATCTATATACATTTACCTTTTAAGAGGAGGAAT | 0.501
CGACATGTCCCGCTTCTTTCATTAATCCGTTAGCAACTGTTTCACTATATACATTTACCTTTTAAGAGGAGGAAT | 0.694
